In US20100261777, “Inhibiton of metallo-beta-lactamase by double-stranded dna” (published 2010):

What was measured:
[1] = target: T1, metallo-beta-lactamase (class B) 5/B/6 (Bacillus cereus) (UniProt P14488); assay: inhibition; details: for IC50: cephalosporin C 4 mM; for IC50 / Ki: MOPS pH 7.0, 30 C; for Ki: noncompetitive
T1 sequence: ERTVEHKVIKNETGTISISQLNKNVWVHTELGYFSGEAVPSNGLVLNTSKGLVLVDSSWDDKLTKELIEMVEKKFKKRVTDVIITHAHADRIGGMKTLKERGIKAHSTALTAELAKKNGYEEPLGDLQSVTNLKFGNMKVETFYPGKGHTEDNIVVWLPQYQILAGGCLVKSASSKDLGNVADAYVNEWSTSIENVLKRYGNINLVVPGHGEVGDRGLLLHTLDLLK

carboxypeptidase A = target: T2, carboxypeptidase A (Bos taurus, UniProt P00730 P00730:111-419); assay: inhibition; 10% LiCl, 30 C, hippuryl-L-phenylalanine 1 mM; details: tags: bovine, zinc-dependent
T2 sequence: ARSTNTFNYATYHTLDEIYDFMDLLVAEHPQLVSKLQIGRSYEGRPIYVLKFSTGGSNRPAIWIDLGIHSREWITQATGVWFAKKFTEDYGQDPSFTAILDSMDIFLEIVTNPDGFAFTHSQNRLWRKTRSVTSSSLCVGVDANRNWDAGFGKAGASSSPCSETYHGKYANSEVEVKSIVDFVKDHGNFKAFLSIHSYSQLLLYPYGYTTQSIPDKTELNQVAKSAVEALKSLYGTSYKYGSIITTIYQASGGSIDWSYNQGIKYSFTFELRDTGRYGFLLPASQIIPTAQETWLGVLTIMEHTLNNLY
Procedure: Bovine Carboxypeptidase A Assay. The assay used for the bovine carboxypeptidase A is based on the method developed by Folk and Schirmer (1963). The rate of hydrolysis of hippuryl-L-phenylalanine is determined by monitoring the increase in absorbance at 254 nm (25° C., pH=7.5). The enzyme was dissolved in 10% lithium chloride to a concentration of 1-3 units per mL. Hippuryl-L-phenylalanine (1 mM) was dissolved in 0.05 M Tris HCl, pH=7.5 with 0.5 M sodium chloride. In a 1 cm cuvette, 1.0 mL of substrate was added and incubated in the spectraphotometer at 25° C. for 3-4 minutes to reach temperature equilibrium and establish a blank rate. Fifty μL of diluted enzyme was preincubated for 15 minutes at 25° C. with or without the inhibitor and was then added to record the increase in absorbance at 254 nm.
At 25 times the IC₅₀ value (275 nM) for the metallo-β-lactamase no inhibition of the against B. cereus 569/H/9 β-lactamase I was detected (data not shown) Additionally a bovine carboxypeptidase A (Zn²⁺dependent enzyme) assay was performed to test for Zn²⁺ specificity. […] The enzyme was incubated in the buffer (10% LiC1) for 15 minutes at 30° C. The concentration of the substrate (Hippuryl-L-phenylalanine) is 1 mM.

[2] = target: T3, metallo-beta-lactamase (class B) 5/B/6 (Bacillus cereus, UniProt P14488 P14488:30-256); assay: inhibition; single strand control; details: tags: strain 5/B/6; desalted enzyme used for SELEX
T3 sequence: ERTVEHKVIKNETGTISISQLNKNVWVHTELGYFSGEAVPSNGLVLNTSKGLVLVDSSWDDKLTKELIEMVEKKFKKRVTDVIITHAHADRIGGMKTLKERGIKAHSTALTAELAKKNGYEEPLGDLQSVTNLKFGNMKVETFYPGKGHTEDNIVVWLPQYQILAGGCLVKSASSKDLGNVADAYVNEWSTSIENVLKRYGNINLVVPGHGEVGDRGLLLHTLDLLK

Molecule: CGCGAGCTCCGCGCGNNNNNNNNNNNNNNNNNNNNNNNNNNNNNNCGCGCGCATATGGCGC (double strand) [round 8 SELEX pool (30 nt random insert)]
- activity ([1]; preliminary, pool after round 8, DNA quantitation approximate): 25 % inhibition

Molecule: ATGATCCGGTGCTGTATGTTCCTACATGA (double strand) [ds 29-mer]
- IC50 ([1]; no added Zn2+): 0.014 µM
- Ki ([1]; KI' 9.1 nM, no added Zn2+): 0.011 µM

Molecule: ATGTTCCTACATGA (double strand) [ds 14-mer]
- IC50 [1]: 0.011 µM
- Ki ([1]; KI' 13 nM): 0.013 µM

Molecule: ATGATCCGGTGCTGT (double strand) [ds 15-mer]
- IC50 [1]: 0.021 µM
- Ki ([1]; KI' 76.5 nM): 0.103 µM

B1: ds 14-mer (dsDNA)
DNA 1: ATGTTCCTACATGA
DNA 2: TCATGTAGGAACAT
- IC50 (carboxypeptidase A): 0.1 µM

Molecule: ACAGCACCGGATCAT (ssDNA) [ss 15-mer complementary strand]
- IC50 [2]: 0.75 µM

Molecule: ATGATCCGGTGCTGT (ssDNA) [ss 15-mer top strand]
- IC50 [2]: 0.15 µM
